Results from patent publication US20050158838.
Positions count from the first letter of the chain named.

How the values were obtained:
DINDDRSLF test peptide = target: T1, DINDDRSLF test peptide
T1 chain: DINDDRSLF

GDDDDK-β naphthylamine = target: T2, GDDDDK-β naphthylamine
T2 chain: GDDDDK

[1] = target: T3, phage isolate 5-H11 display polypeptide ((Asp)4-Lys-containing recognition sequence)
T3 chain: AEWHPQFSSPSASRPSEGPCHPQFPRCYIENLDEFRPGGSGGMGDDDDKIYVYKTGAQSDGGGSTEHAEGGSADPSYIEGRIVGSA

[2] = target: T4, phage isolate 5-B05 display polypeptide
T4 chain: T3 chain with M43S, G44L, D48R, K49T, I50V, Y51S, V52P, Y53K, K54F, T55W

GNYTDRRFI test peptide = target: T5, GNYTDRRFI test peptide
T5 chain: GNYTDRRFI

GNYTDRYFI test peptide = target: T6, GNYTDRYFI test peptide
T6 chain: GNYTDRYFI

NKAKDRMFI test peptide = target: T7, NKAKDRMFI test peptide
T7 chain: NKAKDRMFI

[3] = target: T8, phage isolate 5-A08 display polypeptide
T8 chain: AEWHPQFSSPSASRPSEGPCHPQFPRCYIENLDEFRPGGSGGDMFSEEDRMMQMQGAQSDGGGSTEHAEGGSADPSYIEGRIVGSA

[4] = target: T9, phage isolate 5-H04 display polypeptide
T9 chain: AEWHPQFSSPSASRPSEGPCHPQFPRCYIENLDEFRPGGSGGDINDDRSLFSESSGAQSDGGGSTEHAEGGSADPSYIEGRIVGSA

[5] = target: T10, AVLSNVMFI (negative control test peptide)
T10 chain: AVLSNVMFI

[6] = target: T11, GDDDDKIYV (positive control test peptide)
T11 chain: GDDDDKIYV

GNYTDRMFI test peptide = target: T12, GNYTDRMFI test peptide
T12 chain: GNYTDRMFI

B1: recombinant light chain enterokinase (Novagen, Madison, Wis.) (protein)
chain: IVGGSDSREGAWPWVVALYFDDQQVCGASLVSRDWLVSAAHCVYGRNMEPSKWKAVLGLHMASNLTSPQIETRLIDQIVINPHYNKRRKNNDIAMMHLEMKVNYTDYIQPICLPEENQVFPPGRICSIAGWGALIYQGSTADVLQEADVPLLSNEKCQQQMPEYNITENMVCAGYEAGGVDSCQGDSGGPLMCQENNRWLLAGVTSFGYQCALPNRPGVYARVPRFTEWIQSFLH
What does the source list for B1?
Cleavage Rate (DINDDRSLF test peptide): 1.43 nmol/min; cleavage by 20U recombinant light chain enterokinase, 36-48 hrs, HPLC (DINDDRSLF test peptide): all digestions were carried to completion (except for the negative control which was not cleaved at all); rate relative to standard substrate (fold of standard substrate) (DINDDRSLF test peptide): 3.1; ratio (Va/Vb) against reference peptide GDDDDK-βNA, equal to the ratio of kcat/Km (DINDDRSLF test peptide): 30; rate relative to standard substrate (fold of standard substrate) (GDDDDK-β naphthylamine): 1; enterokinase cleavage rate, phage ELISA (release of streptavidin-bound phage at 30 nM or 130 nM enterokinase) [1]: the cleavage rate for the (Asp)4-Lys-containing recognition sequence 5-H11 (SEQ ID NO:194) was slower than for at least three of the other isolates; enterokinase cleavage rate, phage ELISA (release of streptavidin-bound phage at 30 nM or 130 nM enterokinase) [2]: the cleavage rate for ... 5-H11 (SEQ ID NO:194) was slower than for at least three of the other isolates, i.e., 5-A08 (SEQ ID NO:137), 5-B05 (SEQ ID NO:145) and 5-H04 (SEQ ID NO:188); Cleavage Rate (GNYTDRRFI test peptide): 0.18 nmol/min; cleavage by 20U recombinant light chain enterokinase, 36-48 hrs, HPLC (GNYTDRRFI test peptide): all digestions were carried to completion (except for the negative control which was not cleaved at all); rate relative to standard substrate (fold of standard substrate) (GNYTDRRFI test peptide): 0.4; Cleavage Rate (GNYTDRYFI test peptide): 0.24 nmol/min; cleavage by 20U recombinant light chain enterokinase, 36-48 hrs, HPLC (GNYTDRYFI test peptide): all digestions were carried to completion (except for the negative control which was not cleaved at all); rate relative to standard substrate (fold of standard substrate) (GNYTDRYFI test peptide): 0.5; Cleavage Rate (NKAKDRMFI test peptide): 0.26 nmol/min; cleavage by 20U recombinant light chain enterokinase, 36-48 hrs, HPLC (NKAKDRMFI test peptide): all digestions were carried to completion (except for the negative control which was not cleaved at all); rate relative to standard substrate (fold of standard substrate) (NKAKDRMFI test peptide): 0.6; enterokinase cleavage rate, phage ELISA (release of streptavidin-bound phage at 30 nM or 130 nM enterokinase) [3]: the cleavage rate for ... 5-H11 (SEQ ID NO:194) was slower than for at least three of the other isolates, i.e., 5-A08 (SEQ ID NO:137), 5-B05 (SEQ ID NO:145) and 5-H04 (SEQ ID NO:188); enterokinase cleavage rate, phage ELISA (release of streptavidin-bound phage at 30 nM or 130 nM enterokinase) [4]: isolate 5-H04 (SEQ ID NO:188) shown in Table 5 was the most readily cut; cleavage by 20U recombinant light chain enterokinase, 36-48 hrs, HPLC [5]: No cleavage occurred with the negative control peptide (SEQ ID NO:198); cleavage by 20U recombinant light chain enterokinase, 36-48 hrs, HPLC [6]: all digestions were carried to completion (except for the negative control which was not cleaved at all); rate relative to standard substrate (fold of standard substrate) [6]: 0.7; ratio (Va/Vb) against reference peptide GDDDDK-βNA, equal to the ratio of kcat/Km [6]: 1; Cleavage Rate (GNYTDRMFI test peptide): 0.81 nmol/min; cleavage by 20U recombinant light chain enterokinase, 36-48 hrs, HPLC (GNYTDRMFI test peptide): all digestions were carried to completion (except for the negative control which was not cleaved at all); rate relative to standard substrate (fold of standard substrate) (GNYTDRMFI test peptide): 1.8; ratio (Va/Vb) against reference peptide GDDDDK-βNA, equal to the ratio of kcat/Km (GNYTDRMFI test peptide): 3.5
